This passage reports Km, kcat and stoichiometry N results from publication PMC4304843, “Human Mitochondrial Hsp70 (Mortalin): Shedding Light on ATPase Activity, Interaction with Adenosine Nucleotides, Solution Structure and Domain Organization” (PLoS ONE, 2015).

For data set [1], the system named is T1, Nc1ncnc2c1ncn2[C@@H]1O[C@H](COP(=O)(O)OP(=O)(O)OP(=O)(O)O)[C@@H](O)[C@H]1O.
T1 construct: monomeric SEC fraction, alkaline phosphatase treated
In words: ATPase, EnzChek phosphate assay, Michaelis-Menten fit. The data set is classed as biochemical, Homo sapiens. The following applies: TKP buffer without phosphate pH 7.5, 2 mM Mg2+, 37°C, no co-chaperone. The source says:
ATPase, EnzChek phosphate assay, Michaelis-Menten fit on human mortalin (mtHsp70, GRP75, HspA9, PBP74)

The target in data set [2] is Human mitochondrial Hsp70 (mortalin), recombinant (human) (UniProt P38646). As to the kind of experiment: SEC; analytical SEC (Superdex 200 GL 10/30, TKP buffer pH 7.5) of mortalin directly after Ni2+ affinity chromatography. (In gel filtration, larger molecules generally elute earlier.)

The Km is the concentration of substrate that gives half-maximal velocity. As a reminder, the kcat is the number of substrate molecules converted per active site and unit of time at saturation. As usually defined, the stoichiometry N is the number of molecules, sites or subunits per partner or assembly.

human mortalin (mtHsp70, GRP75, HspA9, PBP74) (Homo sapiens), sequence (chain, as listed by the source): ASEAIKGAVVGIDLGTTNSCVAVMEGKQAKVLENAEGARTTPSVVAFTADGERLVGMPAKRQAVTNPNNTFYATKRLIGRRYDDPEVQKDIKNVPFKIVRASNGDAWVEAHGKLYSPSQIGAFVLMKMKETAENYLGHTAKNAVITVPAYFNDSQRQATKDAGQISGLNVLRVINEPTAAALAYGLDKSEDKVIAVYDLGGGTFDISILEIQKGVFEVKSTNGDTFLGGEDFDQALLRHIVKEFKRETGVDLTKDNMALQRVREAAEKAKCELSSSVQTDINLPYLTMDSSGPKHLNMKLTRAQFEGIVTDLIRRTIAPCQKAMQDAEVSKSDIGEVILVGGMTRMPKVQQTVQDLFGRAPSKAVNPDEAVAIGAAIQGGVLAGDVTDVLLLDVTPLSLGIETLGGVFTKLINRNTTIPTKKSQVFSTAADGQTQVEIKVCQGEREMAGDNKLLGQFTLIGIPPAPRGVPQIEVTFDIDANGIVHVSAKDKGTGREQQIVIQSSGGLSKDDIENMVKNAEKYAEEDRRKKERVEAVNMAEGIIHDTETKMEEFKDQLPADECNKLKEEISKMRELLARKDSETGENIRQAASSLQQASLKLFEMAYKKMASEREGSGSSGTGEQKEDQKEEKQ

For the substance “human mortalin (mtHsp70, GRP75, HspA9, PBP74) (Homo sapiens)”, in data set [1], the Km came out at 190 ± 20 µM and the kcat came out at 0.00252 ± 3.33e-05 s⁻¹.

As for “Human mitochondrial Hsp70 (mortalin), recombinant (from UniProt P38646 47-679) (natural protein)”, in data set [2], the stoichiometry N was determined as 2.
